The labels stand for the following.
T1: human PDGF-C peptide no. 58 (human)
T1 peptide: Biotin-VLQLRPKTGVRGLHK

T2: human PDGF-C peptide no. 9 (human)
T2 peptide: Biotin-FPHTYPRNTVLVWRL

T3: human PDGF-C peptide no. 27 (human)
T3 peptide: Biotin-EPGFCIHYNIVMPQF

B1: Humanized 16B1 anti-PDGF-C antibody (antibody, V domains shown)
VH: EVQLLESGGGLVQPGGSLRLSCAASGFTFSNYGMSWVRQTPGKGLEWVATIGSGGSYTYYPDSVKGRFTISRDNAKNTLYLQMNSLRAEDTAVYYCARQAPLWDYSDYWGQGTLLTVSS
VL: DVVMTQSPLSLPVTLGQPASISCRSNQSIVHSNGDTYLEWYLQKPGQSPRLLIYKVSNRFSGVPDRFSGSGSGTDFTLKISRVEAEDVGVYYCFQGSHVPPTFGQGTKLEIK
notes: also called humanized mAb 16B1
B2: anti-PDGF-C antibody 5A2 (antibody, IgG2b, V domains shown)
VH: EVQLVESGGDLVKPGGSLKLSCAASGFTFSNYGMSWVRQTPDKRLEWVATIGSGGHYTYYPDSVKGRFTISRDSAKSTLYLQMSSLKSEDTAIYYCARQAPLWDCSDYWGQGTTLTVSS
VL: B1 VL with V3L, S7T, T14S, Q17D, P18Q, R50K, V88L, Q105G
notes: Mouse monoclonal from hybridoma, IgG2b, kappa; also called mAb 5A2; hybridoma LMBP 9484CB
B3: anti-PDGF-C antibody 5H7 (antibody, IgG1, V domains shown)
VH: EVQLVESGGDLVKPGGSLKLSCAASGFTFSSYGMSWVRQTPDKRLEWVATIGYGGSFTYYPDSMKGRFTISRDNAKNTLFLQMSSLKSEDTAIYYCVRQAPLWDYFDYWGQGTTLTVSS
VL: DVLMTQTPLSLPVSLGDQASISCRSSQTIVHSDGTTYLEWYLQKAGQSPKLLIYKVSNRFSGVPDRFSGSGSGTDFTLKISRVEAEDLGVYYCFQGSHVPPTFGGGTKLEIK
notes: Mouse monoclonal from hybridoma, IgG1, kappa; also called mAb 5H7; hybridoma LMBP 9485CB
B4: anti-PDGF-C antibody 2D3 (antibody, IgG1, V domains shown)
VH: B2 VH with H56S, S77N, I93M, C105Y
VL: B3 VL with S26N, D33N, T35D, A45P, K50N
notes: Mouse monoclonal from hybridoma, IgG1, kappa; also called mAb 2D3; hybridoma LMBP 9483CB
B5: anti-PDGF-C antibody 29H1 (antibody, IgG1, V domains shown)
VH: B2 VH with K87R, E89D
VL: B3 VL with S26N, T28S, D33N, T35D, A45P, K50N
notes: Mouse monoclonal from hybridoma, IgG1, kappa; also called mAb 29H1; hybridoma LMBP 9487CB
B6: anti-PDGF-C antibody 16B1 (antibody, IgG1, V domains shown)
VH: B2 VH with H56S, S77N, I93M, C105Y
VL: B3 VL with S26N, T28S, D33N, T35D, A45P
notes: Mouse monoclonal from hybridoma, IgG1, kappa; VH same as 2D3, VL same as 5A2; also called mAb 16B1; hybridoma LMBP 9486CB
B7: recombinant human PDGFRα Fc chimera (6765-PR from R&D Systems) (Fc fusion, not shown: a dimerising Fc or GST)
chain: QLSLPSILPNENEKVVQLNSSFSLRCFGESEVSWQYPMSEEESSDVEIRNEENNSGLFVTVLEVSSASAAHTGLYTCYYNHTQTEENELEGRHIYIYVPDPDVAFVPLGMTDYLVIVEDDDSAIIPCRTTDPETPVTLHNSEGVVPASYDSRQGFNGTFTVGPYICEATVKGKKFQTIPFNVYALKATSELDLEMEALKTVYKSGETIVVTCAVFNNEVVDLQWTYPGEVKGKGITMLEEIKVPSIKLVYTLTVPEATVKDSGDYECAARQATREVKEMKKVTISVHEKGFIEIKPTFSQLEAVNLHEVKHFVVEVRAYPPPRISWLKNNLTLIENLTEITTDVEKIQEIRYRSKLKLIRAKEEDSGHYTIVAQNEDAVKSYTFELLTQVPSSILDLVDDHHGSTGGQTVRCTAEGTPLPDIEWMICKDIKKCNNETSWTILANNVSNIITEIHSRDRSTVEGRVTFAKVEETIAVRCLAKNLLGAENRELKLVAPTLRSEIEGRMD
B8: Humanized 5H7 anti-PDGF-C antibody (antibody, V domains shown)
VH: B1 VH with N31S, S53Y, Y57F, V64M, S106F
VL: B1 VL with N26S, S28T, N33D, D35T
notes: also called humanized mAb 5H7

Substitutions are numbered along the chain they refer to. Ends that are not written are not given here. * marks the point of attachment. Biotin = O=C1N[C@H]2[C@H](CS[C@H]2CCCCC(=O)*)N1

The target of one assay is T4, Recombinant human PDGF-C from R&D Systems (1687-CC/CF; Val235-Gly345) (human, UniProt Q9NRA1 235-345). The assay can be described thus: cell-based or functional assay.
T4 sequence (Q9NRA1 235-345 limits assumed, form in doubt): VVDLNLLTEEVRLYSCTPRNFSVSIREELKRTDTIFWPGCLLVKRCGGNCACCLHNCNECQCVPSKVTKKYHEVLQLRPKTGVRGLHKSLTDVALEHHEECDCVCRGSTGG
On to B1, for which the “IC50 value (nM), PathHunter PDGFRα assay” value was found to be 4.97 nM.

Another assay has as its target T4, Recombinant human PDGF-C from R&D …. Kind of assay: cell-based or functional assay. This is another data set of the same source.
For B2, the “% PDGFRα activation in the PathHunter PDGFRα assay at 5.56 µg/ml antibody with PDGF-CC at EC80 (no Ab with PDGF-CC = 100, no Ab without PDGF-CC = 24)” value was determined as 20%; the “% PDGFRα activation in the PathHunter PDGFRα assay at 16.67 µg/ml antibody with PDGF-CC at EC80 (no Ab with PDGF-CC = 100, no Ab without PDGF-CC = 24)” value worked out at 17%; the “% PDGFRα activation in the PathHunter PDGFRα assay at 50 µg/ml antibody with PDGF-CC at EC80 (no Ab with PDGF-CC = 100, no Ab without PDGF-CC = 24)” value was determined as 18%.

In the case of B3, the “% PDGFRα activation in the PathHunter PDGFRα assay at 5.56 µg/ml antibody with PDGF-CC at EC80 (no Ab with PDGF-CC = 100, no Ab without PDGF-CC = 24)” value amounted to 24%; the “% PDGFRα activation in the PathHunter PDGFRα assay at 16.67 µg/ml antibody with PDGF-CC at EC80 (no Ab with PDGF-CC = 100, no Ab without PDGF-CC = 24)” value was found to be 22%; the “% PDGFRα activation in the PathHunter PDGFRα assay at 50 µg/ml antibody with PDGF-CC at EC80 (no Ab with PDGF-CC = 100, no Ab without PDGF-CC = 24)” value worked out at 22%.

Consider B4, for which the “% PDGFRα activation in the PathHunter PDGFRα assay at 5.56 µg/ml antibody with PDGF-CC at EC80 (no Ab with PDGF-CC = 100, no Ab without PDGF-CC = 24)” value was determined as 32%; the “% PDGFRα activation in the PathHunter PDGFRα assay at 16.67 µg/ml antibody with PDGF-CC at EC80 (no Ab with PDGF-CC = 100, no Ab without PDGF-CC = 24)” value stood at 24%; the “% PDGFRα activation in the PathHunter PDGFRα assay at 50 µg/ml antibody with PDGF-CC at EC80 (no Ab with PDGF-CC = 100, no Ab without PDGF-CC = 24)” value is 23%.

On to B5, for which the “% PDGFRα activation in the PathHunter PDGFRα assay at 5.56 µg/ml antibody with PDGF-CC at EC80 (no Ab with PDGF-CC = 100, no Ab without PDGF-CC = 24)” value came to 22%; the “% PDGFRα activation in the PathHunter PDGFRα assay at 16.67 µg/ml antibody with PDGF-CC at EC80 (no Ab with PDGF-CC = 100, no Ab without PDGF-CC = 24)” value stood at 21%; the “% PDGFRα activation in the PathHunter PDGFRα assay at 50 µg/ml antibody with PDGF-CC at EC80 (no Ab with PDGF-CC = 100, no Ab without PDGF-CC = 24)” value amounted to 22%.

For the molecule B6, the “% PDGFRα activation in the PathHunter PDGFRα assay at 5.56 µg/ml antibody with PDGF-CC at EC80 (no Ab with PDGF-CC = 100, no Ab without PDGF-CC = 24)” value came out at 24%; the “% PDGFRα activation in the PathHunter PDGFRα assay at 16.67 µg/ml antibody with PDGF-CC at EC80 (no Ab with PDGF-CC = 100, no Ab without PDGF-CC = 24)” value is 23%; the “% PDGFRα activation in the PathHunter PDGFRα assay at 50 µg/ml antibody with PDGF-CC at EC80 (no Ab with PDGF-CC = 100, no Ab without PDGF-CC = 24)” value was 20%.

The target is the same in another assay. Kind of assay: cell-based or functional assay. The source holds these as a separate data set.
Turning to B2, the “IC50 value (nM), PathHunter PDGFRα assay” value turned out to be 3.36 nM.

For the molecule B3, the “IC50 value (nM), PathHunter PDGFRα assay” value came out at 5.57 nM.

On to B4, for which the “IC50 value (nM), PathHunter PDGFRα assay” value came out at 7.47 nM.

On to B6, for which the “IC50 value (nM), PathHunter PDGFRα assay” value is 8.38 nM.

B7: the “IC50 value (nM), PathHunter PDGFRα assay” value was 0.65 nM.

The next assay concerns the target T1, human PDGF-C peptide no. 58. The assay can be described thus: peptide ELISA, signal to background >3. On the procedure: (§1) The indicated peptides where synthesized in an N-terminally biotinylated form and coated onto a neutravidin plate (Thermo Scientific, Cat. 15127) at a concentration of 10 μg/mL. […] Each antibody was tested at least twice, and up to 4 times. A “+” in the table indicate that a signal to background >3 was found and confirmed at least once. The background signal was measured in the absence of peptide using both the primary and the secondary antibodies.
For the molecule B2, the binding result is reported as “binds”.

On to B3, for which the binding result was “binds”.

As for B5, the binding result is “binds”.

A further assay concerns the target T2, human PDGF-C peptide no. 9. The assay can be described thus: peptide ELISA, signal to background >3. On the procedure: as §1
Turning to B2, the binding result is “binds”.

A further assay concerns the target T3, human PDGF-C peptide no. 27. The assay can be described thus: peptide ELISA, signal to background >3. On the procedure: as §1
As for B2, the binding result is given as “binds”.

Another assay concerns the target T4, Recombinant human PDGF-C from R&D …. The assay can be described thus: cell-based or functional assay. The source holds these as a separate data set.
With B2, the “% PDGF-Rα activation by PDGF-C allowed at 1.85 µg/mL antibody (100% = no antibody)” value (from here on “% PDGF-Rα activation … (100% = no antibody)”) came to 30%.

B3: the “% PDGF-Rα activation … (100% = no antibody)” value was 32%.

With B4, the “% PDGF-Rα activation … (100% = no antibody)” value turned out to be 49%.

In the case of B5, the “% PDGF-Rα activation … (100% = no antibody)” value was found to be 23%.

B6: the “% PDGF-Rα activation … (100% = no antibody)” value was 38%.

A further assay shares this target. Kind of assay: SPR (Biacore 3000), antibody amine-coupled to CM5 chip, PDGF-C injected, 1:1 fit. On the procedure: (§2) The different antibodies were each separately coated to a CM5 chip at a density of 1680 RU using standard amine chemistry. Different concentrations (200, 175, 150, 125, 100, 75, 50, 25, 12.5, 6.25, 3.125 & 0 nM) of PDGF-C (R&D Systems, Cat. 1687-CC/CF) were injected over the coated antibody for 5 min, then buffer was flowed for 10 min to monitor the dissociation of the captured antigen. The surface was regeneration between each run with a single injection of glycine-HCl, pH 2.5. Affinities were obtained by analyzing the sensorgrams with the help of the BIAevaluation 4.1 software assuming a 1:1 interaction. The experiment was performed with a Biacore 3000 instrument.
On to B2, for which the Kd worked out at 5 nM.

On to B3, for which the Kd is 2.5 nM.

Regarding B4, the Kd was determined as 1.5 nM.

B5: the Kd stood at 1.5 nM.

As to B6, the Kd amounted to 1.2 nM.

The next assay shares this target. The assay can be described thus: SPR as in Example 3. On the procedure:
as §2
The affinity of the above-listed exemplary humanized anti-PDGF-C antibodies for PDGF-C was analysed (as in Example 3) and the humanized antibodies were subsequently assessed in the in vitro bioassay described in Example 4. A technical problem with the (preparation of) humanized antibody 5H7 may explain why this antibody is apparently not inhibiting activation of PDGFR-α although it is still binding with high affinity to PDGF-C; this is under further investigation.
Turning to B8, the Kd was 2.5 nM.

B1: the Kd was found to be 0.8 nM.

The values above are taken from patent US20150232546A1 (THROMBOGENICS, published 2015).
